Here are results for two molecules from PMC10324392, “Enabling Peptide Ligation at Aromatic Junction Mimics via Native Chemical Ligation and Palladium-Mediated S-Arylation”.

As a reminder, the Kd is the concentration at which binding is half-saturated. A higher Kd goes with a looser complex.

Data set [1] deals with Max DNA-binding domain (synthetic, S-arylated) (UniProt P61244, F43C, then Cys43 S-arylated with Pd-1 to a Phe mimic). In words: BLI; EMSA: 10 mM MES, 150 mM KCl, 1 mM MgCl2, 10% glycerol, room temperature 1 h, 10% TBE gel, pH not given; BLI: 1x PBS, 0.1% BSA, 0.02% Tween-20, streptavidin sensors, temperature not given. Particulars: chain copies: 2; (22 bp, only one strand printed). (In general: Biolayer interferometry detects binding as a change in optical thickness at a sensor tip.)
Max DNA-binding domain (synthetic, S-arylated), sequence (P61244 22-102 F43C): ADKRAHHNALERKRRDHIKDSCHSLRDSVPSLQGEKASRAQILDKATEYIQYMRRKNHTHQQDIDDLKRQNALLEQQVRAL

Data set [2] deals with Max DNA-binding domain (synthetic, S-arylated);Myc DNA-binding domain (synthetic, S-arylated) (;, UniProt P61244;P01106 ;, F43C, then Cys43 S-arylated with Pd-1 to a Phe mimic|Y402C, then Cys402 …). Briefly: EMSA; equimolar Myc and Max; 1 uM DNA; 0, 4, 8 uM protein; EMSA: 10 mM MES, 150 mM KCl, 1 mM MgCl2, 10% glycerol, room temperature 1 h, 10% TBE gel, pH not given; BLI: 1x PBS, 0.1% BSA, 0.02% Tween-20, streptavidin sensors, temperature not given. Particulars: tags: ;; copies: 1;1; (22 bp, only one strand printed).
Max DNA-binding domain (synthetic, S-arylated);Myc DNA-binding domain (synthetic, S-arylated), sequence (P61244 22-102, stated change not applied, chain 1 of 2): as the sequence (P61244 22-102 F43C) above, with C22F counted along it
Max DNA-binding domain (synthetic, S-arylated);Myc DNA-binding domain (synthetic, S-arylated), sequence (P01106 369-449, stated change not applied, chain 2 of 2): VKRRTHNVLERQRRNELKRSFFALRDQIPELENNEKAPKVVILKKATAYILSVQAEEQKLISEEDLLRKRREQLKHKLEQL

B1: biotinylated E-box DNA probe (BLI) (dsDNA)
DNA 1: CCGGCTGACACGTGGTATTAAT
DNA 2: ATTAATACCACGTGTCAGCCGG
On to B1, for which binding in data set [1] was characterised by a dissociation constant (Kd) of 14.8 ± 0.2 nM.

B2: E-box DNA probe (22 bp) (dsDNA)
DNA 1: CCGGCTGACACGTGGTATTAAT
DNA 2: ATTAATACCACGTGTCAGCCGG
Take B2: in data set [2], the binding result is on record as “binds”.
